According to patent CN111662385A:
pKd: −log10 of the molar value.

Target: human GPC3 recombinant protein (human) (UniProt P51654)
Test: BLI (ForteBio), antibody 5 ug/ml on anti-human IgG Fc sensor, GPC3 62.5-1000 nM

pKd: 8.76 | koff: 0.00024 s⁻¹ | kon: 141000 M⁻¹ s⁻¹
Substance: hGC33(Codrituzumab) (antibody)
